Experiment [1] deals with T1, full-length human CD19 on transfected K562 cells (human, UniProt P15391 20-556).
T1 construct: whole, on cells; K562 clone transfected with pCMV6-Entry; also called CD19 K562; CD19/K562; not shown: flag or Myc tag at the C-terminus
T1 sequence (looked up): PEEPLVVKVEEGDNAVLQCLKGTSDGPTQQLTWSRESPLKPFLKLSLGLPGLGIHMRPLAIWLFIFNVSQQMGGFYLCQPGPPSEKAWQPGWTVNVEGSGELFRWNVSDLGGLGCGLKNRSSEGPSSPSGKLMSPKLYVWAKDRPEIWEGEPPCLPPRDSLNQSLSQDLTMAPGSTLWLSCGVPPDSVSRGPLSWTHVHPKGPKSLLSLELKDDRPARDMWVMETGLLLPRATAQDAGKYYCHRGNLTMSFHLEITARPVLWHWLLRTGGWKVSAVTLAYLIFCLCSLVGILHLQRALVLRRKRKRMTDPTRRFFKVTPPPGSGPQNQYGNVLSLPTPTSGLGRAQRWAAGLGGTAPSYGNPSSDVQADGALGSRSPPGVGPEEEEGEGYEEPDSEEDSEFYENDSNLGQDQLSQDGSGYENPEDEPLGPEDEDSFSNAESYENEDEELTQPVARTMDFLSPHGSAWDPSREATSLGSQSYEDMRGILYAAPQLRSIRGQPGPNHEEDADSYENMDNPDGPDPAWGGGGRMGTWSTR
The experiment can be described thus: FACS, bispecific scFv at 200 nM on CD19 K562 cells, Alexa Fluor 647 anti-His detection, % positive cells. The protocol:
(§1) Cells were spun down at 1300 rpm for 5 minutes at 4° C. to remove unbound antibodies. Cells were then washed once with 200 iaL of PBS per well. […] Samples were then spun down at 1300 rpm for 5 minutes at 4° C. and washed twice with 200uL of 1×PBS per well. The resultant samples were reconstituted in 200 uL of 1×PBS and read on Attune™ NxT Flow Cytometer.
(In general: A flow cytometer gives signals particle by particle.)

Experiment [2] deals with T1, full-length human CD19 on transfected …. The experiment can be described thus: cell-based or functional assay.
Experiment [3] addresses full-length human CD22 on transfected K562 cells (human, UniProt P20273 20-847). The experiment can be described thus: cell-based or functional assay.
In experiment [4] the target is human CD19 and human CD22 co-expressed on transfected K562 cells (human, UniProt P15391 20-556; P20273 20-847). Briefly: cell-based or functional assay.
Experiment [5] has as its target T1, full-length human CD19 on transfected …. Briefly: FACS, scFv at 200 nM on CD19 K562 cells, Alexa Fluor 647 anti-His detection, % positive cells. The protocol: as §1

B1: EPC-001-9 (bispecific scFv) (bispecific antibody)
scFv: QVQLQQWGAGLLKPSETLSLTCAVYGGSFSGYYWTWIRQPPGKGLEWIGEINHGGSSNYNPSLKSRVTISVDTSKKQFSLNLNSVTAADTAVYYCARGLGYRSGWYEVENAFDIWGQGTMVTVSSGGGGSGGGGSGGGGSQPVLTQPPSVSVAPGQTARITCGGNKIESRSVHWYQQKPGQAPVLVVYDDGARPSGIPERLSGSNSGDTATLTISRVEPGDEADYYCQVWDGSSVIFGGGTKLTVLGGGGSGGGGSGGGGSGGGGSEVQLVQSGAEVKKPGASVKVSCKASGYTFTSYGISWVRQAPGQGLEWMGWISAYNGNTNYAQKLQGRVTMTTDTSTSTAYMELRSLRSDDTAVYYCARDYGDPSGDDYWGQGTLVTVSSGGGGSGGGGSGGGGSEIVLTQSPATLSVSPGEGVTLSCRASQSVSSNLAWYQQRPGQAPRLLIYGASIKATDVPDRFSGGGSGTDFTLSISNLQSEDFAVYYCQQYHTWPPVTFGGGTKVEIKDYKDDDDKGGHHHHHH
notes: Expressed in E. coli periplasm, Ni-purified
Turning to B1, in experiment [1], the binding result is “binds”.

B2: EPC-001-5 (bispecific antibody)
tandem scFv, anti-CD19 scFv - linker - anti-CD22 scFv - Flag - His: QVQLQQWGAGLLKPSETLSLTCAVYGGSFSGYYWTWIRQPPGKGLEWIGEINHGGSSNYNPSLKSRVTISVDTSKKQFSLNLNSVTAADTAVYYCARGLGYRSGWYEVENAFDIWGQGTMVTVSSGGGGSGGGGSGGGGSQPVLTQPPSVSVAPGQTARITCGGNKIESRSVHWYQQKPGQAPVLVVYDDGARPSGIPERLSGSNSGDTATLTISRVEPGDEADYYCQVWDGSSVIFGGGTKLTVLGGGGSGGGGSGGGGSGGGGSQVQLVQSGAEVKRPGASVKVSCKASGYTFTSYGISWVRQAPGQGLEWMGWISAYNGNTNYAQKLQGRVTMTTDTSTSTAYMELRSLRSDDTAVYYCARDPGIAVAGTVDYWGQGTLVTVSSGGGGSGGGGSGGGGSEIVMTQSPATLSVSPGEGVTLSCRASQSVSSNLAWYQQRPGQAPRLLIYGASIKATDVPDRFSGGGSGTDFTLSISNVQSEDFAVYYCQQYHTWTPVTFGGGTKVEIKDYKDDDDKGGHHHHHH
notes: also called EPC-001-5 (bispecific scFv)
For the molecule B2, in experiment [1], the binding result was “binds”.

B3: EPC-001-19 (bispecific CAR; G4S linker; co-expressed with EGFR), on transduced human T cells (other)
chain: EVQLVQSGAEVKKPGASVKVSCKASGYTFTSYGISWVRQAPGQGLEWMGWISAYNGNTNYAQKLQGRVTMTTDTSTSTAYMELRSLRSDDTAVYYCARDYGDPSGDDYWGQGTLVTVSSGGGGSGGGGSGGGGSEIVLTQSPATLSVSPGEGVTLSCRASQSVSSNLAWYQQRPGQAPRLLIYGASIKATDVPDRFSGGGSGTDFTLSISNLQSEDFAVYYCQQYHTWPPVTFGGGTKVEIKGGGGSQVQLQQWGAGLLKPSETLSLTCAVYGGSFSGYYWTWIRQPPGKGLEWIGEINHGGSSNYNPSLKSRVTISVDTSKKQFSLNLNSVTAADTAVYYCARGLGYRSGWYEVENAFDIWGQGTMVTVSSGGGGSGGGGSGGGGSQPVLTQPPSVSVAPGQTARITCGGNKIESRSVHWYQQKPGQAPVLVVYDDGARPSGIPERLSGSNSGDTATLTISRVEPGDEADYYCQVWDGSSVIFGGGTKLTVLESKYGPPCPPCPMFWVLVVVGGVLACYSLLVTVAFIIFWVKRGRKKLLYIFKQPFMRPVQTTQEEDGCSCRFPEEEEGGCELRVKFSRSADAPAYQQGQNQLYNELNLGRREEYDVLDKRRGRDPEMGGKPRRKNPQEGLYNELQKDKMAEAYSEIGMKGERRRGKGHDGLYQGLSTATKDTYDALHMQALPPR
B3: the “IFNγ/Granzyme B Double Positive Cell % (CD4+)” value came to 10.9% in experiment [2], 0.92% in experiment [3] and 3.01% in experiment [4]. For the same molecule, the figures for the “IFNγ/Granzyme B Double Positive Cell % (CD8+)” value in experiment [2], in experiment [3] and in experiment [4] were 82%, 68.5% and 74.9%, respectively.

B4: EPC-001-10 (bispecific scFv) (bispecific antibody)
scFv: EVQLVQSGAEVKKPGASVKVSCKASGYTFTSYGISWVRQAPGQGLEWMGWISAYNGNTNYAQKLQGRVTMTTDTSTSTAYMELRSLRSDDTAVYYCARDYGDPSGDDYWGQGTLVTVSSGGGGSGGGGSGGGGSEIVLTQSPATLSVSPGEGVTLSCRASQSVSSNLAWYQQRPGQAPRLLIYGASIKATDVPDRFSGGGSGTDFTLSISNLQSEDFAVYYCQQYHTWPPVTFGGGTKVEIKGSTSGSGKPGSGEGSTKGQVQLQQWGAGLLKPSETLSLTCAVYGGSFSGYYWTWIRQPPGKGLEWIGEINHGGSSNYNPSLKSRVTISVDTSKKQFSLNLNSVTAADTAVYYCARGLGYRSGWYEVENAFDIWGQGTMVTVSSGGGGSGGGGSGGGGSQPVLTQPPSVSVAPGQTARITCGGNKIESRSVHWYQQKPGQAPVLVVYDDGARPSGIPERLSGSNSGDTATLTISRVEPGDEADYYCQVWDGSSVIFGGGTKLTVLDYKDDDDKGGHHHHHH
notes: as for B1
For the molecule B4, in experiment [1], the binding result is listed as “binds”.

B5: EPC-001-4 (scFv)
scFv (VH-linker-VL): EVQLVQSGAEVKKPGASVKVSCKASGYTFTSYGISWVRQAPGQGLEWMGWISAYNGNTNYAQKLQGRVTMTTDTSTSTAYMELRSLRSDDTAVYYCARDYGDPSGDDYWGQGTLVTVSSGGGGSGGGGSGGGGSEIVLTQSPATLSVSPGEGVTLSCRASQSVSSNLAWYQQRPGQAPRLLIYGASIKATDVPDRFSGGGSGTDFTLSISNLQSEDFAVYYCQQYHTWPPVTFGGGTKVEIK
notes: also called anti-CD22 monospecific scFv; parental anti-CD22 scFv
For the molecule B5, the binding result in experiment [5] is “no binding (tested: 200 nM)”.

B6: EPC-001-6 (bispecific antibody)
tandem scFv, anti-CD22 scFv - linker - anti-CD19 scFv - Flag - His: QVQLVQSGAEVKRPGASVKVSCKASGYTFTSYGISWVRQAPGQGLEWMGWISAYNGNTNYAQKLQGRVTMTTDTSTSTAYMELRSLRSDDTAVYYCARDPGIAVAGTVDYWGQGTLVTVSSGGGGSGGGGSGGGGSEIVMTQSPATLSVSPGEGVTLSCRASQSVSSNLAWYQQRPGQAPRLLIYGASIKATDVPDRFSGGGSGTDFTLSISNVQSEDFAVYYCQQYHTWTPVTFGGGTKVEIKGSTSGSGKPGSGEGSTKGQVQLQQWGAGLLKPSETLSLTCAVYGGSFSGYYWTWIRQPPGKGLEWIGEINHGGSSNYNPSLKSRVTISVDTSKKQFSLNLNSVTAADTAVYYCARGLGYRSGWYEVENAFDIWGQGTMVTVSSGGGGSGGGGSGGGGSQPVLTQPPSVSVAPGQTARITCGGNKIESRSVHWYQQKPGQAPVLVVYDDGARPSGIPERLSGSNSGDTATLTISRVEPGDEADYYCQVWDGSSVIFGGGTKLTVLDYKDDDDKGGHHHHHH
notes: also called EPC-001-6 (bispecific scFv)
B6: in experiment [1], the binding result was “binds”.

B7: EPC-001-8 (bispecific scFv) (bispecific antibody)
scFv: EVQLVQSGGGVVQPGKSLRLSCAASGFTFSSYGMHWVRQAPGKGLEWVAVIWYDGSNKYYADSVKGRFTISRDNSKNTLYLQMNSLRAEDTAVYYCARDGWTGFDYWGQGTTVTVSSGGGGSGGGGSGGGGSEIVLTQSPATLSVSPGEGVTLSCRASQSVSSNLAWYQQRPGQAPRLLIYGASIKATDVPDRFSGGGSGTDFTLSISNLQSEDFAVYYCQQYHTWPPVTFGGGTKVEIKGSTSGSGKPGSGEGSTKGQVQLQQWGAGLLKPSETLSLTCAVYGGSFSGYYWTWIRQPPGKGLEWIGEINHGGSSNYNPSLKSRVTISVDTSKKQFSLNLNSVTAADTAVYYCARGLGYRSGWYEVENAFDIWGQGTMVTVSSGGGGSGGGGSGGGGSQPVLTQPPSVSVAPGQTARITCGGNKIESRSVHWYQQKPGQAPVLVVYDDGARPSGIPERLSGSNSGDTATLTISRVEPGDEADYYCQVWDGSSVIFGGGTKLTVLDYKDDDDKGGHHHHHH
notes: as for B1
Take B7: the binding result in experiment [1] is on record as “binds”.

B8: EPC-001-7 (bispecific scFv) (bispecific antibody)
scFv: QVQLQQWGAGLLKPSETLSLTCAVYGGSFSGYYWTWIRQPPGKGLEWIGEINHGGSSNYNPSLKSRVTISVDTSKKQFSLNLNSVTAADTAVYYCARGLGYRSGWYEVENAFDIWGQGTMVTVSSGGGGSGGGGSGGGGSQPVLTQPPSVSVAPGQTARITCGGNKIESRSVHWYQQKPGQAPVLVVYDDGARPSGIPERLSGSNSGDTATLTISRVEPGDEADYYCQVWDGSSVIFGGGTKLTVLGGGGSGGGGSGGGGSGGGGSEVQLVQSGGGVVQPGKSLRLSCAASGFTFSSYGMHWVRQAPGKGLEWVAVIWYDGSNKYYADSVKGRFTISRDNSKNTLYLQMNSLRAEDTAVYYCARDGWTGFDYWGQGTTVTVSSGGGGSGGGGSGGGGSEIVLTQSPATLSVSPGEGVTLSCRASQSVSSNLAWYQQRPGQAPRLLIYGASIKATDVPDRFSGGGSGTDFTLSISNLQSEDFAVYYCQQYHTWPPVTFGGGTKVEIKDYKDDDDKGGHHHHHH
notes: Expressed in E. coli periplasm (pET22b, Rosetta II), Ni-purified; detected with an anti-His antibody
As for B8, the binding result in experiment [1] was “binds”.

The record behind these values is patent US20240082402A1 (ELPIS BIOPHARMACEUTICALS, published 2024).
